Measurements taken from paper PMC8871097.

B1: Pea seed ferritin purified from pea seed milk boiled for 5 min (natural protein)
chain: TTAPLTGVIFEPFEEVKKDYLAVPSVPLVSLARQNFADECESVINEQINVEYNASYVYHSLFAYFDRDNVALKGFAKFFKESSEEHREHAEKLMKYQNTRGGRVVLHPIKDVPSEFEHVEKGDALYAMELALSLEKLTNEKLLNVHSVAERNNDLEMTHFIEGEYLAEQVEAIKKISEYVAQLRRVGKGHGVWHFDQRLLHGVHGA
modifications: not checked
B2: Pea seed ferritin purified from pea seed milk boiled for 10 min (natural protein)
chain: B1 chain
modifications: not checked

Experiments:
[1] = molecular target: Pea seed ferritin purified from pea seed milk boiled for 5 min (Pisum sativum (pea)); test: native gel or EMSA; Native-PAGE, 5-20% gradient gel, samples not boiled, 180 V, 4 °C, Coomassie brilliant blue R-250; assembly state of the purified ferritin
[2] = molecular target: Pea seed ferritin purified from pea seed milk boiled for 10 min (Pisum sativum (pea)); test: as above

Binder | stoichiometry N [1] | stoichiometry N [2]
B1 | 24 | 
B2 |  | 24
